Reference: US20250304664A1 (VIB VZW, published 2025)

T1: NTCP consensus-mutant construct used for cryo-electron microscopy structure determination (NTCPEM) (human (consensus design), UniProt Q14973 2-328)
T1 chain: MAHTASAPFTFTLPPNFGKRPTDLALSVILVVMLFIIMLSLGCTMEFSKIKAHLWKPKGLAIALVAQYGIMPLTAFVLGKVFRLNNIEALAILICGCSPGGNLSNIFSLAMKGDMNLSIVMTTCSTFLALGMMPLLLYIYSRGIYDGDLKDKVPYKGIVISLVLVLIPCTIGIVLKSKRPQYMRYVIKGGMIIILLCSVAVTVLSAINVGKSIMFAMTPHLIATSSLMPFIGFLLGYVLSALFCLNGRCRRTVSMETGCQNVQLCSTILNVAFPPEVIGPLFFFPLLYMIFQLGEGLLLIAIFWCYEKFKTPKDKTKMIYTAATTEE

T2: human wild type Sodium taurocholate co-transporting polypeptide (NTCPWT) (human, UniProt Q14973 1-349)
T2 construct: Transiently expressed in HEK293 cells; also called SLC10A1; human wildtype NTCP
T2 sequence: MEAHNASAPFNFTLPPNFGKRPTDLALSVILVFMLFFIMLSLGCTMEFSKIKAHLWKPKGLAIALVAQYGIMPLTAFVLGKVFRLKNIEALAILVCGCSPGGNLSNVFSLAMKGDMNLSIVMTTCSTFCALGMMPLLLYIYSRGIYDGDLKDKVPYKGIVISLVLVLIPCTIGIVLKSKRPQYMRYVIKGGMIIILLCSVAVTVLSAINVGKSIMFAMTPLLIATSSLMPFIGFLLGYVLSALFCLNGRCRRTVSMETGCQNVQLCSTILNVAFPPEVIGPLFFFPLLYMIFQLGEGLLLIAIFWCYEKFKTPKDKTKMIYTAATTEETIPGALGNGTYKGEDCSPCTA

T3: N-glycosylation knocked-out NTCP (NTCPWT_KOG) (human, UniProt Q14973 1-349)
T3 chain: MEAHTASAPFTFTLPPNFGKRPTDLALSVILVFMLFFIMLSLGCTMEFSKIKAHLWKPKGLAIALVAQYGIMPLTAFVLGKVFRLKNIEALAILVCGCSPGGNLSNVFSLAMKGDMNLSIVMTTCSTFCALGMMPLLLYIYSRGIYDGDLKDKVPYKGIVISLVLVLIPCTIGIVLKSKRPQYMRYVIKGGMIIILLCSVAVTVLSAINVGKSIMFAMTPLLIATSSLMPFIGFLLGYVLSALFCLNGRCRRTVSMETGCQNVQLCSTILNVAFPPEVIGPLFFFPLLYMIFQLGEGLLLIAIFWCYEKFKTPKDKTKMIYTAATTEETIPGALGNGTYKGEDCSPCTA

B1: NbNTCP_87 (VHH)
VHH: QVQLVESGGGLVQAGGSLRLSCAVSGRTTANYNMGWFRQAPGKEREFVAGIKWSSGSTYVADSAKGRFTISRDNAKNSVYLQMDSLKPEDTALYYCAANYYGVSWFLISPSSYDYWGQGTQVTVSS
notes: Family 21; expressed in E. coli periplasm; also called Nb87
B2: NbNTCP_87 - S55Q variant (VHH)
VHH: QVQLVESGGGLVQAGGSLRLSCAVSGRTTANYNMGWFRQAPGKEREFVAGIKWSQGSTYVADSAKGRFTISRDNAKNSVYLQMDSLKPEDTALYYCAANYYGVSWFLISPSSYDYWGQGTQVTVSS
notes: Single mutant of Nb87; also called Nb87 S55Q
B3: NbNTCP_87 - S111R variant (VHH)
VHH: QVQLVESGGGLVQAGGSLRLSCAVSGRTTANYNMGWFRQAPGKEREFVAGIKWSSGSTYVADSAKGRFTISRDNAKNSVYLQMDSLKPEDTALYYCAANYYGVSWFLISPRSYDYWGQGTQVTVSS
notes: Single mutant of Nb87; also called Nb87 S111R
B4: NbNTCP_87 - S55E variant (VHH)
VHH: QVQLVESGGGLVQAGGSLRLSCAVSGRTTANYNMGWFRQAPGKEREFVAGIKWSEGSTYVADSAKGRFTISRDNAKNSVYLQMDSLKPEDTALYYCAANYYGVSWFLISPSSYDYWGQGTQVTVSS
notes: Single mutant of Nb87; also called Nb87 S55E
B5: NbNTCP_87 -A30Q variant (VHH)
VHH: QVQLVESGGGLVQAGGSLRLSCAVSGRTTQNYNMGWFRQAPGKEREFVAGIKWSSGSTYVADSAKGRFTISRDNAKNSVYLQMDSLKPEDTALYYCAANYYGVSWFLISPSSYDYWGQGTQVTVSS
notes: Single mutant of Nb87; also called Nb87 A30Q
B6: NbNTCP_91- N27D variant (VHH)
VHH: QVQLVESGGGLVEAGGSLRLSCAASTDLRSYAMAWFRQAPGKEREFVSFINWNYGNTRYADSVKGRFTISRDNAKITVYLQMNSLKPEDTAVYYCAAATIGRLAGIDSTTLYDYWGQGTQVTVSS
notes: Single mutant of Nb91; also called Nb91 N27D
B7: NbNTCP_91- N27E variant (VHH)
VHH: QVQLVESGGGLVEAGGSLRLSCAASTELRSYAMAWFRQAPGKEREFVSFINWNYGNTRYADSVKGRFTISRDNAKITVYLQMNSLKPEDTAVYYCAAATIGRLAGIDSTTLYDYWGQGTQVTVSS
notes: Single mutant of Nb91; also called Nb91 N27E
B8: NbNTCP_91- N27Q variant (VHH)
VHH: QVQLVESGGGLVEAGGSLRLSCAASTQLRSYAMAWFRQAPGKEREFVSFINWNYGNTRYADSVKGRFTISRDNAKITVYLQMNSLKPEDTAVYYCAAATIGRLAGIDSTTLYDYWGQGTQVTVSS
notes: Single mutant of Nb91; also called Nb91 N27Q
B9: NbNTCP_91-N53D variant (VHH)
VHH: QVQLVESGGGLVEAGGSLRLSCAASTNLRSYAMAWFRQAPGKEREFVSFINWDYGNTRYADSVKGRFTISRDNAKITVYLQMNSLKPEDTAVYYCAAATIGRLAGIDSTTLYDYWGQGTQVTVSS
notes: Single mutant of Nb91; also called Nb91 N53D
B10: NbNTCP_91- R29N variant (VHH)
VHH: QVQLVESGGGLVEAGGSLRLSCAASTNLNSYAMAWFRQAPGKEREFVSFINWNYGNTRYADSVKGRFTISRDNAKITVYLQMNSLKPEDTAVYYCAAATIGRLAGIDSTTLYDYWGQGTQVTVSS
notes: Single mutant of Nb91; also called Nb91 R29N
B11: NbNTCP_91- L103N variant (VHH)
VHH: QVQLVESGGGLVEAGGSLRLSCAASTNLRSYAMAWFRQAPGKEREFVSFINWNYGNTRYADSVKGRFTISRDNAKITVYLQMNSLKPEDTAVYYCAAATIGRNAGIDSTTLYDYWGQGTQVTVSS
notes: Single mutant of Nb91; also called Nb91 L103N
B12: NbNTCP_91- R29S variant (VHH)
VHH: QVQLVESGGGLVEAGGSLRLSCAASTNLSSYAMAWFRQAPGKEREFVSFINWNYGNTRYADSVKGRFTISRDNAKITVYLQMNSLKPEDTAVYYCAAATIGRLAGIDSTTLYDYWGQGTQVTVSS
notes: Single mutant of Nb91; also called Nb91 R29S
B13: NbNTCP_91- R29G variant (VHH)
VHH: QVQLVESGGGLVEAGGSLRLSCAASTNLGSYAMAWFRQAPGKEREFVSFINWNYGNTRYADSVKGRFTISRDNAKITVYLQMNSLKPEDTAVYYCAAATIGRLAGIDSTTLYDYWGQGTQVTVSS
notes: Single mutant of Nb91; also called Nb91 R29G; NbNTOP_91- R29G variant

biological target: T4, excitatory amino acid transporter, EAAT1 (UniProt P43003 1-542, limits assumed); assay: cell surface labelling of transfected HEK293T cells, Nb87 as primary Nb and (AntiC)2-mCherryXL as secondary Nb, fluorescence microscopy
T4 construct: whole, on cells; Negative control expressed on HEK293T cells; also called unrelated neurotransmitter transporter
T4 sequence (P43003 whole entry): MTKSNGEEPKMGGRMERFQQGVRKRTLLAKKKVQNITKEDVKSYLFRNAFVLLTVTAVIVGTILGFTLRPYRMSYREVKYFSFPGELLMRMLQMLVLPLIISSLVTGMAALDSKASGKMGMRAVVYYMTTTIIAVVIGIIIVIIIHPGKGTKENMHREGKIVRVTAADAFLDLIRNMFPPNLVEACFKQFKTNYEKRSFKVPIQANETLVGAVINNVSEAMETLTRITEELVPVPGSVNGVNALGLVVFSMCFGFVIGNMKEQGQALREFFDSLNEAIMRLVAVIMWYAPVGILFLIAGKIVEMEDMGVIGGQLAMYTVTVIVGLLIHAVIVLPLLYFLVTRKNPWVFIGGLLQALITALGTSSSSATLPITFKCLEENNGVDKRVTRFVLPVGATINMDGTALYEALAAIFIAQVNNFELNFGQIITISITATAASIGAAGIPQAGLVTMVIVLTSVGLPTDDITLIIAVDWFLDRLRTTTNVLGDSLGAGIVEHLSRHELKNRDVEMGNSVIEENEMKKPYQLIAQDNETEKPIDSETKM
Protocol: (§1) Adherent HEK293T cells were seeded at 0.3×10⁶/mL using 500 μl per well in a 24-well plate and incubated for 2 days. 5 μg of cDNA coding for NTCP, or control neurotransmitter (EAAT1) was transfected as follows: (1) 5 μg DNA was mixed with 50 μl Opti-MEM and incubated for 5 min; (2)² μl lipofeactamine was mixed with 50 μl of Opti-MEM and incubated for 5 min: (3) DNA and lipofectamine solutions were mixed in 1:1 ratio and incubated for 20 min. 100 μl of the mixture was added to each well. After incubation for 6-8 h the medium was changed to DMEM medium, and incubated for 2 days post transfection. […] Excess of primary unlabeled Nb was removed and 10 μM of the secondary labelled Nb ((AntiC)2-mCherryXL) was added following a 1 h incubation. Cells were washed once with fresh medium prior to detection of fluorescence on an inverted microscope.

Row | Binder | binding result
1 | B1 | no binding (tested: 20 µM Nb87)

Biological target: T1, NTCP consensus-mutant construct used …
Assay: cell-based or functional assay

Row | Binder | half-maximal inhibitory concentrations (IC50) of Na+-induced fluorescent-substrate uptake by cells expressing NTCPEM
2 | B1 | ~180 nM

biological target: T2, human wild type Sodium taurocholate …; assay: cell surface labelling, 20 µM Nb87 and 10 µM (AntiC)2-mCherryXL, fluorescence microscopy
Protocol: as §1

Row | Binder | binding result
3 | B1 | binds

Biological target: T3, N-glycosylation knocked-out NTCP …
Assay: competition with Nb87, substrate uptake read-out in HEK293 cells expressing NTCPWT-KOG, Nbs at 2 µM

Row | Binder | binding result
4 | B2 | binds
5 | B3 | binds
6 | B4 | binds
7 | B5 | binds

Biological target: T3, N-glycosylation knocked-out NTCP …
Assay: competition with Nb91, substrate uptake read-out in HEK293 cells expressing NTCPWT-KOG, Nbs at 10 µM

Row | Binder | binding result
8 | B6 | binds
9 | B7 | binds
10 | B8 | binds
11 | B9 | binds
12 | B10 | binds
13 | B11 | binds
14 | B12 | binds
15 | B13 | binds
